± gives the uncertainty stated by the source.
Test: amyloid nucleation score (Sup35N fusion, yeast selection) (log enrichment); library NNK2; higher = more nucleation; inactive = no reads after selection
Outline: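 The nucleation score, computed with DiMSum, is the log enrichment of output over input reads, centred on the mode score of non-aggregating sequences. Sequences with under 100 input reads were dropped. Reads were generated by Illumina sequencing of plasmid inserts from psi-negative yeast with Sup35N fused to peptides of 20 random codons, induced with 100 μM copper sulfate for 24 hours and grown 7 days at 30°C on medium lacking adenine and uracil.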

Going from WTDAKALGGLSLLIRWSLEE to WTHDVWSGSYEWARDGLDVK, the amyloid nucleation score falls from 4.13 ± 0.087 to -0.163 ± 0.79.

Compared with WTMRDLCG, WTPVDVLCMIGMRSVCYINM is higher in amyloid nucleation score: 0.526 ± 0.3 for the first, 1.79 ± 0.1 for the second.

WTTRFSCITTFLRQCPYM and WTWTYARDVHTTLN are within error of each other in amyloid nucleation score: 0.148 ± 0.79 for the first, 1.13 ± 0.41 for the second.

Going from WTWVLMNIL to WVDMAL, the amyloid nucleation score rises from -1.76 ± 0.64 to 0.168 ± 0.8.

First: WVHVNSCELDSPGKAWGDTG
Second: WVNSCVPGLARPNSLFFNRS
The amyloid nucleation score of the first is higher: 1.11 ± 0.32 for the first, -0.491 ± 0.56 for the second.

WVQHYCSEFLL and WVSVRKRHWTTHWLGVGVPN are within error of each other in amyloid nucleation score: -0.313 ± 0.63 for the first, 0.611 ± 0.66 for the second.

WVTWLISCCYNRLEQGCLAF and WVVRPPDTLVLDETRVGSGM are within error of each other in amyloid nucleation score: 0.097 ± 0.63 for the first, 0.699 ± 0.34 for the second.

First: WWETSIFFWEGIYT
Second: WWEVIRLSLRS
The amyloid nucleation score of the first is lower: -0.22 ± 0.8 for the first, 2.04 ± 0.13 for the second.

First: WWRRRCR
Second: WWTIIICNWSVSKGQDDNRA
The amyloid nucleation score of the first is lower: 0.224 ± 0.3 for the first, 7.238 ± 0.059 for the second.

First: WYCSHFISFHLESKF
Second: WYFWGLHMIGVSTAISNPLR
The amyloid nucleation score of the first is higher: 4.76 ± 0.11 for the first, -0.683 ± 1.1 for the second.

First: WYLYFFVFLLHMNRNLFLVL
Second: WYSNAVG
The amyloid nucleation score of the first is lower: -1.63 ± 0.55 for the first, 1.57 ± 0.37 for the second.

WYTDPDSDVAHYFAPQLK and WYVLAWDPPLSFMCLGDV are within error of each other in amyloid nucleation score: -0.693 ± 1.1 for the first, 0.666 ± 0.53 for the second.

YAEHYWHLDNRTDWGIKEGY and YALVVLIWT are within error of each other in amyloid nucleation score: -0.78 ± 0.61 for the first, -1.43 ± 1.1 for the second.

Going from YAMCPCVYNLDSQGAC to YAMGGGKGEDDLSCWYDYAC, the amyloid nucleation score falls from 3.85 ± 0.12 to 0.219 ± 0.47.

YANMVRERINWI and YASTRRIGLEDIVW are within error of each other in amyloid nucleation score: 0.198 ± 0.28 for the first, -0.821 ± 0.78 for the second.

First: YAVLSLKAWCLSG
Second: YCCPYYRKVLF
The amyloid nucleation score of the first is higher: 4.61 ± 0.054 for the first, -0.559 ± 0.61 for the second.

YCFEADVARMIQVFLVFCAS and YCFFKVKTDLKTMCELGSTA are within error of each other in amyloid nucleation score: 0.259 ± 0.25 for the first, -0.122 ± 0.55 for the second.

YCFMVRFRYGPLREMTNCSK and YCFRS are within error of each other in amyloid nucleation score: -0.34 ± 0.62 for the first, -0.542 ± 0.64 for the second.

Going from YCGTVFHGSRRECGISVRGW to YCLSDKWTLCG, the amyloid nucleation score falls from 1.19 ± 0.33 to 0.367 ± 0.41.

Compared with YCLSSNVGVFKCFNGNVVYS, YCMMPATGICVLDVSVCRDT is higher in amyloid nucleation score: 3.54 ± 0.081 for the first, 8.289 ± 0.054 for the second.

Going from YCMSYCRSTCYHQEFHGPAC to YCSWFVWSTANVSMAYIVEF, the amyloid nucleation score falls from 4.34 ± 0.072 to -0.892 ± 0.41.

YCVLMNS and YCYLMMEAWHMEANWYHCFV are within error of each other in amyloid nucleation score: -0.173 ± 0.41 for the first, -0.209 ± 0.2 for the second.

YDCLCFFPWCRLFNSRKSMA and YDCLSWRLKEERQATFGFRG are within error of each other in amyloid nucleation score: 0.34 ± 0.14 for the first, 0.505 ± 0.51 for the second.

YDDKGEIRLPDQSMNCFVSD and YDKDFCDRRTEPKKFVLRHA are within error of each other in amyloid nucleation score: -0.766 ± 1 for the first, 0.092 ± 0.4 for the second.

Going from YDKSYFVFFNP to YDLPFYAKEHGLPFVQWGNW, the amyloid nucleation score falls from 1.36 ± 0.27 to 0.261 ± 0.22.

YDQVSFAL and YDSFMVGVCYAG are within error of each other in amyloid nucleation score: -0.584 ± 0.76 for the first, -1.42 ± 1.1 for the second.

Going from YDSWLDTVVFDFFCLCLDKA to YDVGTPRIRDFLCAIDRGNH, the amyloid nucleation score rises from -1.42 ± 0.75 to 0.106 ± 0.34.

Compared with YDVNGLFTITNPAANYMKPT, YDYNCRDVWIWHA is higher in amyloid nucleation score: -1.3 ± 0.34 for the first, -0.184 ± 0.63 for the second.

YDYVEGAEPPLGDGCIVVFH and YECGCHLFD are within error of each other in amyloid nucleation score: -0.451 ± 0.79 for the first, -0.225 ± 0.74 for the second.

YELHRNAIPRRRSQDSL and YESLYVKLVAEPQIRCMYYS are within error of each other in amyloid nucleation score: -0.81 ± 0.39 for the first, -0.152 ± 0.34 for the second.

Compared with YEYDLSPCSVVRRVTLKRMV, YFCSVSRFRVLDSDYYRKGW is lower in amyloid nucleation score: 1.55 ± 0.4 for the first, -0.817 ± 1.1 for the second.

Going from YFFFIVLDLYLMSCFGVVCE to YFGCQMMSN, the amyloid nucleation score rises from -1.13 ± 0.76 to 0.459 ± 0.54.

First: YFGGLANKMLILSWR
Second: YFHVVFL
The amyloid nucleation score of the first is lower: 0.294 ± 0.24 for the first, 2.75 ± 0.094 for the second.

YFIVVFMLSVNKT and YFNFDL are within error of each other in amyloid nucleation score: 0.06 ± 0.54 for the first, -0.313 ± 0.76 for the second.

First: YFNFIPGANRHDVSHFYGSY
Second: YFRCTHYTKTGTLVGDISVC
The amyloid nucleation score of the first is higher: 0.299 ± 0.21 for the first, -0.657 ± 0.38 for the second.

First: YFSCITILGFGSSNSWRRIM
Second: YFSYVMSVAATAMLGLVVVR
The amyloid nucleation score of the first is lower: -1.02 ± 0.78 for the first, 0.189 ± 0.3 for the second.

YFVPKLYRVSFKLYKWCFKW and YFWLVFLKKHRQGLEGKGGW are within error of each other in amyloid nucleation score: 0.277 ± 0.64 for the first, 0.004 ± 0.62 for the second.

YFWQEIVAFNKVESLILELG and YFYRRVCGINAGPQPCLEYV are within error of each other in amyloid nucleation score: -0.451 ± 1 for the first, -1.27 ± 0.54 for the second.

First: YGESVHTR
Second: YGFDLKSGQSADASCASVSG
The amyloid nucleation score of the first is lower: -0.446 ± 0.38 for the first, 0.586 ± 0.31 for the second.

With WVDNRWEVSLSWAGYTIF the amyloid nucleation score was “inactive”.
In the case of WYVFACLVELYNCGPHGAID, the amyloid nucleation score is reported as “inactive”.
In the case of YAGFVFFRTL, the amyloid nucleation score is reported as “inactive”.
In the case of YCFVDALSCDLPNHEHMDVF, the amyloid nucleation score is reported as “inactive”.
With YDSDFFFHNLGDEPASVGFR the amyloid nucleation score was “inactive”.
In the case of YFLLTFDILLCRAFGTAGPE, the amyloid nucleation score is reported as “inactive”.
In the case of YGFEAFWDNLQPAFTVPRVM, the amyloid nucleation score is reported as “inactive”.
